The assay concerns the target single-bond CDH23 fusion protein (EC1-5/EC3-5 Fc heterodimer with one EC1-2 binding domain) (mouse). As to the kind of experiment: single-molecule dynamic force spectroscopy.

For orientation: koff means the rate constant with which the complex falls apart. A high value points to a short-lived complex. “single-bond PCDH15 fusion protein (EC1-5/EC3-5 Fc heterodimer with one EC1-2 binding domain) (Fc fusion)” showed a force sensitivity fβ (force that accelerates the off-rate e-fold) of 14.3 pN, a koff of 0.62 s⁻¹, a mean lifetime (1/koff) at zero force of 1.6 s and a mean zero-force lifetime in 50 uM Ca2+ of 0.87 s. The single-bond lifetime at a resting tension of 10 pN (calculated from the fit) is 1 s.

The values above are taken from paper doi:10.1101/763847.
